In publication PMC3146532, “Multiple ATR-Chk1 Pathway Proteins Preferentially Associate with Checkpoint-Inducing DNA Substrates”:

Key:
[1] = target: RPA (heterotrimer) (UniProt P27694;P15927;P35244 1-616;1-270;1-121); experiment: pull-down; up to 10-fold more than dsDNA; 10 mM Tris pH 7.4, 50 mM NaCl (oligo DNA) or 100 mM NaCl (plasmid; 200/300 mM for TopBP1 salt series), 10 ug/ml BSA, 10% glycerol, 0.01% NP-40, room temperature, 30 min; bead pull-down with immunoblot; details: protein: recombinant, copies: 1;1;1
[2] = target: T1, His-Chk1 (UniProt O14757 1-476); experiment: pull-down; 10 mM Tris pH 7.4, 50 mM NaCl (oligo DNA) or 100 mM NaCl (plasmid; 200/300 mM for TopBP1 salt series), 10 ug/ml BSA, 10% glycerol, 0.01% NP-40, room temperature, 30 min; bead pull-down with immunoblot; details: protein: recombinant, tags: His
T1 sequence: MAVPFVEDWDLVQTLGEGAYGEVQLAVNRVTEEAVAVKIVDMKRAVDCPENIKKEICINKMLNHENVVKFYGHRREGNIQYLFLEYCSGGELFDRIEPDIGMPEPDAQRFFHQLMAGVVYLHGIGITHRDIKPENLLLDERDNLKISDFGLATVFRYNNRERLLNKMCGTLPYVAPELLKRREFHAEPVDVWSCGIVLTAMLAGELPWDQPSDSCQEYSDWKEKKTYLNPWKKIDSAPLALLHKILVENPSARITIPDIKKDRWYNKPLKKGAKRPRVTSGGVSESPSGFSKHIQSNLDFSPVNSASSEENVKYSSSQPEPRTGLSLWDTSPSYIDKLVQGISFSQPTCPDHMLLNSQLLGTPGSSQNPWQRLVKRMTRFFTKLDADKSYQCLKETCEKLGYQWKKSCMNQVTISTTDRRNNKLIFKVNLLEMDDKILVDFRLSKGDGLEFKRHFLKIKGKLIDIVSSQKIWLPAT

[3] = target: T2, FAAP24-His (UniProt Q9BTP7 1-215); experiment: as above; details: protein: recombinant, tags: His (pET21b)
T2 sequence: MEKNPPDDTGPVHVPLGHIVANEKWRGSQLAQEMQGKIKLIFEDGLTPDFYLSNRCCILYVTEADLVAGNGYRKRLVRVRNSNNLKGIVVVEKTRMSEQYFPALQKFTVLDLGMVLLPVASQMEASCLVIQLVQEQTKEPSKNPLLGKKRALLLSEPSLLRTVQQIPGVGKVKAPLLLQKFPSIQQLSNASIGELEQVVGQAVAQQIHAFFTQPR

[4] = target: T3, 9-1-1 complex (FLAG-Rad9-Hus1-Rad1) (UniProt Q99638;O60921;O60671 1-391;1-280;1-282); experiment: as above; details: protein: recombinant; tags: FLAG on Rad9; copies: 1;1;1; label: 5'-biotin on Oligo1; fork 1:2; 31 bp duplex, two 19 nt unpaired arms (3' of Oligo1, 5' of Oligo2)
T3 sequence 1: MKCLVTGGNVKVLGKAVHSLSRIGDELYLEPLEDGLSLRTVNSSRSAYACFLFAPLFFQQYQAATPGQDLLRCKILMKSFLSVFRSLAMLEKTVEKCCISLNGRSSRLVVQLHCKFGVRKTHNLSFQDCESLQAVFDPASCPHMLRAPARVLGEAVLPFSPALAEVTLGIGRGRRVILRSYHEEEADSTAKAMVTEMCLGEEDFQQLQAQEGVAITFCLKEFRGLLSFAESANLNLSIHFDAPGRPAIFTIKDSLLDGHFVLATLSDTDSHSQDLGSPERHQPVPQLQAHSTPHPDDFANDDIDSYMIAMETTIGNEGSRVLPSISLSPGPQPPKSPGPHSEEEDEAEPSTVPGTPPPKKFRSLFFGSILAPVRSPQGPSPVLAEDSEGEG
T3 sequence 2: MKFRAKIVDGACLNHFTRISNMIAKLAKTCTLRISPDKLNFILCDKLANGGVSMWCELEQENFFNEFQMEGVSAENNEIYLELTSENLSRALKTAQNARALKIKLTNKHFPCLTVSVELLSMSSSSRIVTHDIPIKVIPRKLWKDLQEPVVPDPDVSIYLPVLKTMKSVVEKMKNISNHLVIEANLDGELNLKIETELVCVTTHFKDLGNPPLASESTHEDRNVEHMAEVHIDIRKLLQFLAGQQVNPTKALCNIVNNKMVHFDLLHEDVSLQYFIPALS
T3 sequence 3: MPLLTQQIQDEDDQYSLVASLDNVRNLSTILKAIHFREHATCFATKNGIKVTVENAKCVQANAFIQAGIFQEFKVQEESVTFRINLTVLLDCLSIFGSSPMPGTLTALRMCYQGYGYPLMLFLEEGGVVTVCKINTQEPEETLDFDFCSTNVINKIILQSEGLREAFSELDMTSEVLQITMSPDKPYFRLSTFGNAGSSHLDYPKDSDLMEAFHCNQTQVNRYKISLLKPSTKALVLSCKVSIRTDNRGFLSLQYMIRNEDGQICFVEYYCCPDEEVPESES

[5] = target: MBP-XPA (UniProt P23025 1-273); experiment: as above; details: protein: recombinant; tags: MBP; label: 5'-biotin on Oligo1; fork 1:2; 31 bp duplex, two 19 nt unpaired arms (3' of Oligo1, 5' of Oligo2)
[6] = target: FLAG-Claspin (UniProt Q9HAW4 1-1339); experiment: as above; details: protein: recombinant; tags: FLAG; label: 5'-biotin on Oligo1; fork 1:2; 31 bp duplex, two 19 nt unpaired arms (3' of Oligo1, 5' of Oligo2)
[7] = target: FLAG-Timeless;Tipin-His (human?;human?, UniProt Q9UNS1;Q9BVW5 1-1208;1-301, |); experiment: as above; details: protein: recombinant;recombinant; tags: FLAG;His; copies: 1;1; label: 5'-biotin on Oligo1; fork 1:2; 31 bp duplex, two 19 nt unpaired arms (3' of Oligo1, 5' of Oligo2)
[8] = target: FLAG-Timeless (UniProt Q9UNS1 1-1208); experiment: as above; details: protein: recombinant; tags: FLAG; label: 5'-biotin on Oligo1; fork 1:2; 31 bp duplex, two 19 nt unpaired arms (3' of Oligo1, 5' of Oligo2)
[9] = target: T4, FLAG-ATRIP (UniProt Q8WXE1 1-791); experiment: pull-down; without RPA; 10 mM Tris pH 7.4, 50 mM NaCl (oligo DNA) or 100 mM NaCl (plasmid; 200/300 mM for TopBP1 salt series), 10 ug/ml BSA, 10% glycerol, 0.01% NP-40, room temperature, 30 min; bead pull-down with immunoblot; details: protein: recombinant; tags: FLAG; label: 5'-biotin on Oligo1; fork 1:2; 31 bp duplex, two 19 nt unpaired arms (3' of Oligo1, 5' of Oligo2)
T4 sequence: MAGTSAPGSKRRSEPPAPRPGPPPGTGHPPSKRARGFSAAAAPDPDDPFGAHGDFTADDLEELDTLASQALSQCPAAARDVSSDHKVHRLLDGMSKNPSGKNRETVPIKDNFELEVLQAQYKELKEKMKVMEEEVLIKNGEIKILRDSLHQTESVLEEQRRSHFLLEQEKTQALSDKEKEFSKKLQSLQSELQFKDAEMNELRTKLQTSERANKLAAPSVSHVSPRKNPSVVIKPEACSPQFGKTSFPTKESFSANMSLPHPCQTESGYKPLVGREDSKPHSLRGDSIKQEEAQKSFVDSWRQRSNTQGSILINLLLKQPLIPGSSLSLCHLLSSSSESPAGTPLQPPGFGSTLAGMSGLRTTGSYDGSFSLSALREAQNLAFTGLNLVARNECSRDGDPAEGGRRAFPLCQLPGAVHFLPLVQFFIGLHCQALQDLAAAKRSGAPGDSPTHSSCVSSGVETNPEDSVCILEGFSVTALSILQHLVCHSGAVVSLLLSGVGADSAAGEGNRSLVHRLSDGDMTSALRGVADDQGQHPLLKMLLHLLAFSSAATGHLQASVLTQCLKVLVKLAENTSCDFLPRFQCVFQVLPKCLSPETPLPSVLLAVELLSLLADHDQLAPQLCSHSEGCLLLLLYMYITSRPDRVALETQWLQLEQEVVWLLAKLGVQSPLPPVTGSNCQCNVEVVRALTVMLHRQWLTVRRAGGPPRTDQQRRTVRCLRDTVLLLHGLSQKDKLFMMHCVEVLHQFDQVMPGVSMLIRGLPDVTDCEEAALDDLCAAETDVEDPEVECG

[10] = target: T5, Tipin-His (UniProt Q9BVW5 1-301); experiment: pull-down; >10-fold over ssDNA or dsDNA at highest protein; 10 mM Tris pH 7.4, 50 mM NaCl (oligo DNA) or 100 mM NaCl (plasmid; 200/300 mM for TopBP1 salt series), 10 ug/ml BSA, 10% glycerol, 0.01% NP-40, room temperature, 30 min; bead pull-down with immunoblot; details: protein: recombinant; tags: His; label: 5'-biotin on Oligo1; fork 1:2; 31 bp duplex, two 19 nt unpaired arms (3' of Oligo1, 5' of Oligo2)
T5 sequence: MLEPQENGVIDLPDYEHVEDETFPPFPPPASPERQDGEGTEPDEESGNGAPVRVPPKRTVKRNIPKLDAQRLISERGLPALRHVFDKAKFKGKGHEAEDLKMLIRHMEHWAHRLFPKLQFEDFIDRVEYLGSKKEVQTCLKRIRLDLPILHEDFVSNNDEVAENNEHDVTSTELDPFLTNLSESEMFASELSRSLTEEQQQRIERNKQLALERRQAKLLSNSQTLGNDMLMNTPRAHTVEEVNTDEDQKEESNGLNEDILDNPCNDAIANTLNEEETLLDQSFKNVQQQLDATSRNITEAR

[11] = label: 5'-biotin on Oligo1, fork 1:2, 31 bp duplex, two 19 nt unpaired arms (3' of Oligo1, 5' of Oligo2)

Measured: binding result

RPA (heterotrimer), sequence (P27694 whole entry, chain 1 of 3): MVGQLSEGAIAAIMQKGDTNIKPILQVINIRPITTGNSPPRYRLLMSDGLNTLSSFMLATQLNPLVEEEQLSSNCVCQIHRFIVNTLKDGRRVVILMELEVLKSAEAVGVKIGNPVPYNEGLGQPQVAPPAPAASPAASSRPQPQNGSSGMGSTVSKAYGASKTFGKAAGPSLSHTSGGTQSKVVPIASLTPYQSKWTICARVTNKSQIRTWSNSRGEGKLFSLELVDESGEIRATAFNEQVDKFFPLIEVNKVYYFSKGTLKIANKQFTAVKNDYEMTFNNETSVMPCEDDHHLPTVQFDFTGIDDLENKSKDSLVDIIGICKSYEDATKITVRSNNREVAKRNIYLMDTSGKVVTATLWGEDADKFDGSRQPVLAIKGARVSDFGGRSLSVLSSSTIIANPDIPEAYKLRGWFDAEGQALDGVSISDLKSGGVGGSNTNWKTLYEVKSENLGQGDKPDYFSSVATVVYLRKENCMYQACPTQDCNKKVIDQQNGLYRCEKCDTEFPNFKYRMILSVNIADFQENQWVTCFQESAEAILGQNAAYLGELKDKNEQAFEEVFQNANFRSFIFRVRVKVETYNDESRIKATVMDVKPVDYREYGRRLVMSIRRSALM
RPA (heterotrimer), sequence (P15927 whole entry, chain 2 of 3): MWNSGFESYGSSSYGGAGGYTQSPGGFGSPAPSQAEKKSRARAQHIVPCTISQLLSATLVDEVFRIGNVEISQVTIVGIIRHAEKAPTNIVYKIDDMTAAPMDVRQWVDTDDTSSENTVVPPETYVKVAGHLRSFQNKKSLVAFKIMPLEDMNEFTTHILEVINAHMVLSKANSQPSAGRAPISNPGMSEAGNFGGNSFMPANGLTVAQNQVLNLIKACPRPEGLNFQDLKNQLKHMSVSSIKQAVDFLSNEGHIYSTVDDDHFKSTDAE
RPA (heterotrimer), sequence (P35244 whole entry, chain 3 of 3): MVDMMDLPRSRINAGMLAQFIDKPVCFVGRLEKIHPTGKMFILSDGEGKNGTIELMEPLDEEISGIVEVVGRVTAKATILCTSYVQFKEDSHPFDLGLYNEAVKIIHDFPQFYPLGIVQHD
MBP-XPA, sequence (P23025 whole entry): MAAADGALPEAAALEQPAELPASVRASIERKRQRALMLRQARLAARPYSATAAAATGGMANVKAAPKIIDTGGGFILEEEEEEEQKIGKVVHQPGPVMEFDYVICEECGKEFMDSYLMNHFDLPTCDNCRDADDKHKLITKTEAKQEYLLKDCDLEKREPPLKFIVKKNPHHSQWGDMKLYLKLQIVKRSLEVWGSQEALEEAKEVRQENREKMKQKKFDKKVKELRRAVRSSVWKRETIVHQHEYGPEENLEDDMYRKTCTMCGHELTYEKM
FLAG-Claspin, sequence (Q9HAW4 whole entry): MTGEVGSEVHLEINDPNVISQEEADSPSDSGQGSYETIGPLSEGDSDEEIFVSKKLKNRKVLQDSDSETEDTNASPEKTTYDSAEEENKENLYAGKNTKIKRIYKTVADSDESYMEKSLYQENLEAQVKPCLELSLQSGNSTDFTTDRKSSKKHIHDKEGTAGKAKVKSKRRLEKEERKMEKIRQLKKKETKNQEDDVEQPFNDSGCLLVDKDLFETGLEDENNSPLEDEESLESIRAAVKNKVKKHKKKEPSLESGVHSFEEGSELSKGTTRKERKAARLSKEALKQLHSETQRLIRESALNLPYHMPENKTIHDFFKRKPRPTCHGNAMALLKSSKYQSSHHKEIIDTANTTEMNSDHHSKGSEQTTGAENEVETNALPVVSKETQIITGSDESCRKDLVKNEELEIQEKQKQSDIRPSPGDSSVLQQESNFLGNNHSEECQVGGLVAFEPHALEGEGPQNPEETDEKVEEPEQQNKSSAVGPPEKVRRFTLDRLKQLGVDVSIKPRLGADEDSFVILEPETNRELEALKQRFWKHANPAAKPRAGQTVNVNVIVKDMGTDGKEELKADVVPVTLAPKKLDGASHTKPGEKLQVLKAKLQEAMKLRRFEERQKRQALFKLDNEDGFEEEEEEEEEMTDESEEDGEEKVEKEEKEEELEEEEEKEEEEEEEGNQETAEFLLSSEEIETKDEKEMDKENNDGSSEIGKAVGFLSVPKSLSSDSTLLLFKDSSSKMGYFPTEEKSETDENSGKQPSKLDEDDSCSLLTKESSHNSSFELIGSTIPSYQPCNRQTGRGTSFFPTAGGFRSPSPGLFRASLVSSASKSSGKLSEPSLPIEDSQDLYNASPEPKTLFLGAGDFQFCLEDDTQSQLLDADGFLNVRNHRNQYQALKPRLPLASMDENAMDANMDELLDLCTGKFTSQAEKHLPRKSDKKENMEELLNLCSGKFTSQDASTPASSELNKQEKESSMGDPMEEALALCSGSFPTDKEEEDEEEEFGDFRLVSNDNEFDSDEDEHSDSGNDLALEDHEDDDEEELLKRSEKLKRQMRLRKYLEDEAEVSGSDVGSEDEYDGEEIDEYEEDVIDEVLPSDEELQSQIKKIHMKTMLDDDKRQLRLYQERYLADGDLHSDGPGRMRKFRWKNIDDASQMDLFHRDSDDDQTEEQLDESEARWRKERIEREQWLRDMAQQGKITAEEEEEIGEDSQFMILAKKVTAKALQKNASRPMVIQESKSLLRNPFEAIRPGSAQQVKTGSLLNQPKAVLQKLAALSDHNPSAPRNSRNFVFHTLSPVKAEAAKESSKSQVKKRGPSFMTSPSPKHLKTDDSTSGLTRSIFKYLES
FLAG-Timeless, sequence (Q9UNS1 whole entry): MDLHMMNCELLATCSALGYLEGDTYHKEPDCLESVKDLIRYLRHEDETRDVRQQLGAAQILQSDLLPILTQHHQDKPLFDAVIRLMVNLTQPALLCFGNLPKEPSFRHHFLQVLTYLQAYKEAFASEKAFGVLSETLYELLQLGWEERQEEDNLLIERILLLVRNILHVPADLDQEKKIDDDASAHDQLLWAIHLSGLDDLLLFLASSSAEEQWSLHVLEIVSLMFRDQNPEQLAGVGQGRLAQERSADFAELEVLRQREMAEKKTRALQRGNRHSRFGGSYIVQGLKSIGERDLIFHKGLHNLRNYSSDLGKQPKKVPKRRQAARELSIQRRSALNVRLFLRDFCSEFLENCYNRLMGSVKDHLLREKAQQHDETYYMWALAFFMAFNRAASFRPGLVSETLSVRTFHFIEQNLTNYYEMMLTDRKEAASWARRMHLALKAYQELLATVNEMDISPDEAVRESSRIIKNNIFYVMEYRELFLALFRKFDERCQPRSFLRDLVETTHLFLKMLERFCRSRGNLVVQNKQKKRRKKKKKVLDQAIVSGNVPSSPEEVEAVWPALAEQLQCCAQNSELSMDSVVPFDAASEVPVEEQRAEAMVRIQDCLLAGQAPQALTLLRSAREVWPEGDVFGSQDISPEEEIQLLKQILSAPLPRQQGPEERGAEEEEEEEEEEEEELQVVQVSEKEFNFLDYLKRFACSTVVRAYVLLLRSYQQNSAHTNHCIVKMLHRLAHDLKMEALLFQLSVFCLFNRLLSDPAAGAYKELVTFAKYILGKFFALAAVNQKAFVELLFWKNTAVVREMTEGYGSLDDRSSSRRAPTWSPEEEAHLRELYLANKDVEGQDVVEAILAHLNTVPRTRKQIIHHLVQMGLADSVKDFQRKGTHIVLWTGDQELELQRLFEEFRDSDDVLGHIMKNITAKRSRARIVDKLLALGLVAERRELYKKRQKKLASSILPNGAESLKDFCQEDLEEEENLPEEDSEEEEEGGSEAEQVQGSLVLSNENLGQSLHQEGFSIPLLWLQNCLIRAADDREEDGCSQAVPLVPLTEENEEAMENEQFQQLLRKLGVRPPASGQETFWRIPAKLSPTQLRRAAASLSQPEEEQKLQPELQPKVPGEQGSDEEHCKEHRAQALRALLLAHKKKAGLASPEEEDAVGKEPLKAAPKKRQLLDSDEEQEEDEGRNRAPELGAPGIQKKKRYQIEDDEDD
FLAG-Timeless;Tipin-His, sequence (Q9UNS1 whole entry, one chain of several): as the sequence (Q9UNS1 whole entry) above

B1: ssDNA 50-mer (Oligo1) (ssDNA)
DNA: GACGCTGCCGAATTCTGGCTTGCTAGGACATCTTTGCCCACGTTGACCCG
binds: [1]; label: 5'-biotin | [2]; label: 5'-biotin | [3]; label: 5'-biotin

B2: fork DNA (Oligo1/Oligo2) (mixed)
DNA 1: GACGCTGCCGAATTCTGGCTTGCTAGGACATCTTTGCCCACGTTGACCCG
DNA 2: GCGATAGTCTCTAGACAGCATGTCCTAGCAAGCCAGAATTCGGCAGCGTC
binds: [1]; [11] | [4] | [5] | [6] | [2]; [11] | [7] | [8] | [3]; [11] | [9] | [10]
